In EP1018344A2:

Molecular target: HLA-A2.1 (as the chimeric class I molecule A2.1/K^b on Jurkat A2.1/K^b cells) (human; mouse), A*02:0
Assay: cell-based or functional assay

inhibition of release of serine esterase from CTL line 219	Substance
> 25%	peptide 799.02 (HBenv194-213) (from UniProt P03138 194-213)
> 25%	peptide 799.04 (HBenv234-253) (from UniProt P03138 234-253)
> 25%	peptide 799.05 (HBenv246-265) (from UniProt P03138 246-265)
> 25%	peptide 799.08 (HBenv309-328)
> 25%	peptide 799.09 (HBenv329-348)
> 25%	peptide 799.10 (HBenv349-368)
> 25%	peptide 800.04 (HBenv47-63) (from UniProt P03138 47-63)
> 25%	peptide 800.05 (HBenv63-77) (from UniProt P03138 63-77)
> 25%	peptide 801.02 (HBenv141-157) (from UniProt P03138 141-157)
> 25%	peptide 802.01 (HBc11-27) (from UniProt P03146 11-27)
> 25%	peptide 802.03 (HBc91-110)
> 25%	peptide 802.04 (HBc111-125) (from UniProt P03146 111-125)
> 25%	peptide 802.06 (HBc162-176) (from UniProt P03146 162-176)
